# pKd: −log10 of the molar value.
# Target: Quiescin-sulfhydryl oxidase (QSOX), recombinant human (human) (UniProt O00391)
# Experiment: SPR; Biacore 3000; […]; 30 ul/min in PBS, 0.05% Tween 20, 3 mM EDTA at 25°C; 1:1 Langmuir model; […]
# Sequence of unfolded N-terminal region of human PrP, HuPrP(23-145) (P04156 23-145): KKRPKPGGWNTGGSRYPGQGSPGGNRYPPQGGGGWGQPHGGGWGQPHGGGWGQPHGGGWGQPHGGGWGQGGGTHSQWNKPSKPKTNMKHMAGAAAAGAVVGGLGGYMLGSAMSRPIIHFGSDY
# Sequence of Quiescin-sulfhydryl oxidase (QSOX), recombinant human (human) (O00391 30-709): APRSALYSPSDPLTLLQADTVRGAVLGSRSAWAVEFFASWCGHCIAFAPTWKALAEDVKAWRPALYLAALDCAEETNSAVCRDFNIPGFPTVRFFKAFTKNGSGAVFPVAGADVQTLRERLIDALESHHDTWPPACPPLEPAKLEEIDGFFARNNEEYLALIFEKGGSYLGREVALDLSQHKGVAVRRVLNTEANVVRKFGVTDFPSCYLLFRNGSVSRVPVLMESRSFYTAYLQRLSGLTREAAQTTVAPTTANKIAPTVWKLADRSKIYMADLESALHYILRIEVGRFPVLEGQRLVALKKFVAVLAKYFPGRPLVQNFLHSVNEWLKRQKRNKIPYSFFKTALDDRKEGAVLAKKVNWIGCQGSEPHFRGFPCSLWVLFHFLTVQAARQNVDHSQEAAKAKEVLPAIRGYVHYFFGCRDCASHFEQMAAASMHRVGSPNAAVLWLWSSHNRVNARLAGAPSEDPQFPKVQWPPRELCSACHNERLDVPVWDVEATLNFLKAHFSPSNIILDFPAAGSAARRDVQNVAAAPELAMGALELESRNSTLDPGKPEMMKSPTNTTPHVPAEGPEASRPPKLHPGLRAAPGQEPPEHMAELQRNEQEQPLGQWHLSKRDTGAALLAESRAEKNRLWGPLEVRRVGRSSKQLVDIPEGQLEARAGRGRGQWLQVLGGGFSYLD
substance,measurement,value
"unfolded N-terminal region of human PrP, HuPrP(23-145) (from UniProt P04156 23-145) (domain or fragment)",pKd,8.44
same,koff,4.78e-05 s⁻¹
same,kon,13200 M⁻¹ s⁻¹
